In patent US20240199740A1 (Ablynx, published 2024):

T1: recombinant human CD123 protein (R&D Systems, 301-R3/CF) (human, UniProt P26951 19-305)
T1 construct: Bought recombinant His-tagged extracellular domain of human CD123; also called recombinant CD123; in house biotinylated-CD123 recombinant protein; not shown: His tag of the bought protein
T1 sequence: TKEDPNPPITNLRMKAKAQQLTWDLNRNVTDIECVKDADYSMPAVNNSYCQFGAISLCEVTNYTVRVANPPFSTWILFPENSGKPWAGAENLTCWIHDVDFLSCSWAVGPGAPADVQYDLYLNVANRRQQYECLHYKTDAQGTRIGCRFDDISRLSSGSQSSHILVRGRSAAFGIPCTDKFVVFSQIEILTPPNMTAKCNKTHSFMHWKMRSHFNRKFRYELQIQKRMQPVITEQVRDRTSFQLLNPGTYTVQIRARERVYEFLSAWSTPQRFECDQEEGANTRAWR

T2: cynomolgus CD123 expressed on HEK Flp-In cells (cynomolgus)
T2 construct: EHH61867.1; also called cyCD123; cyno CD123
T2 chain: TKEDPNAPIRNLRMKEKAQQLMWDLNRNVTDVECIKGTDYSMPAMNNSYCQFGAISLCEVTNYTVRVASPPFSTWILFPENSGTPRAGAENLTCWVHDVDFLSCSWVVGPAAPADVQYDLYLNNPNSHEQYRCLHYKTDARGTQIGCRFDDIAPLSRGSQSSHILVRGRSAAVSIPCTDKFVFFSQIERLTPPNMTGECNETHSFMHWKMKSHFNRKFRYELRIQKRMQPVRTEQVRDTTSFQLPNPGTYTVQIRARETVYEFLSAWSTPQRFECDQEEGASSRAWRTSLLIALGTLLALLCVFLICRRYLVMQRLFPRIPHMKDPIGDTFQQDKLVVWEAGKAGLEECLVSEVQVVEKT

B1: T017000135 (bispecific antibody)
chain: DVQLVESGGGLVQAGGPLRLSCAASGRTFSSYVMGWFRQAPGKEREFVAAIYWSNGKTQYTDSVKGRFTISGDNAKNTVYLQMNSLNPEDTAVYYCVADKDETGFRTLPIAYDYWGQGTLVTVSSGGGGSGGGGSGGGGSGGGGSGGGGSGGGGSGGGGSEVQLVESGGGLVQPGGSLRLSCVASGDVHKINFLGWYRQAPGKEREKVAHISIGDQTDYADSAKGRFTISRDESKNMVYLQMNSLKPEDTAVYFCRAFSRIYPYDYWGQGTLVTVSSGGGGSGGGGSGGGGSGGGGSGGGGSGGGGSGGGGSEVQLVESGGGLVQAGGSLRLSCAASGITSKINDMGWYRQTPGNYREWVASITATGTTNYRDSVKGRFTISRDNAKSTVYLQMNSLKPEDTTVYYCNTFPPISNFWGQGTLVTVSSA
B2: T017000115 (bispecific antibody)
chain: EVQLVESGGGLVQAGGSLRLSCAASGITSKINDMGWYRQTPGNYREWVASITATGTTNYRDSVKGRFTISRDNAKSTVYLQMNSLKPEDTTVYYCNTFPPISNFWGQGTLVTVSSGGGGSGGGGSGGGGSGGGGSGGGGSGGGGSGGGGSEVQLVESGGGSVQAGGSLRLSCAASGYTIGPYCMGWFRQAPGKEREGVAAINMGGGITYYADSVKGRFTISQDNAKNTVYLLMNSLEPEDTAIYYCAADSTIYASYYECGHGLSTGGYGYDSWGQGTLVTVSSGGGGSGGGGSGGGGSGGGGSGGGGSGGGGSGGGGSEVQLVESGGGLVQPGGSLRLSCVASGDVHKINFLGWYRQAPGKEREKVAHISIGDQTDYADSAKGRFTISRDESKNMVYLQMNSLKPEDTAVYFCRAFSRIYPYDYWGQGTLVTVSS
notes: Multispecific Nanobody polypeptide expressed in Pichia; also called A0110056A10-35GS-cAbLys3(D1E,Q5V,A6E,Q108L)-35GS-T0170056G05-FLAG3-HIS6; not shown: C-terminal FLAG3-HIS6 tag
B3: T017000120 (bispecific antibody)
chain: EVQLVESGGGSVQAGGSLRLSCAASGYTIGPYCMGWFRQAPGKEREGVAAINMGGGITYYADSVKGRFTISQDNAKNTVYLLMNSLEPEDTAIYYCAADSTIYASYYECGHGLSTGGYGYDSWGQGTLVTVSSGGGGSGGGGSGGGGSGGGGSGGGGSGGGGSGGGGSEVQLVESGGGLVQAGGPLRLSCAASGRTFSSYVMGWFRQAPGKEREFVAAIYWSNGKTQYTDSVKGRFTISGDNAKNTVYLQMNSLNPEDTAVYYCVADKDETGFRTLPIAYDYWGQGTLVTVSSGGGGSGGGGSGGGGSGGGGSGGGGSGGGGSGGGGSEVQLVESGGGLVQPGGSLRLSCVASGDVHKINFLGWYRQAPGKEREKVAHISIGDQTDYADSAKGRFTISRDESKNMVYLQMNSLKPEDTAVYFCRAFSRIYPYDYWGQGTLVTVSS
notes: Multispecific Nanobody polypeptide expressed in Pichia; also called cAbLys3(D1E,Q5V,A6E,Q108L)-35GS-A0110055F03-35GS-T0170056G05-FLAG3-HIS6; not shown: C-terminal FLAG3-HIS6 tag
B4: T017000121 (bispecific antibody)
chain: EVQLVESGGGSVQAGGSLRLSCAASGYTIGPYCMGWFRQAPGKEREGVAAINMGGGITYYADSVKGRFTISQDNAKNTVYLLMNSLEPEDTAIYYCAADSTIYASYYECGHGLSTGGYGYDSWGQGTLVTVSSGGGGSGGGGSGGGGSGGGGSGGGGSGGGGSGGGGSEVQLVESGGGLVQAGGSLRLSCAASGITSKINDMGWYRQTPGNYREWVASITATGTTNYRDSVKGRFTISRDNAKSTVYLQMNSLKPEDTTVYYCNTFPPISNFWGQGTLVTVSSGGGGSGGGGSGGGGSGGGGSGGGGSGGGGSGGGGSEVQLVESGGGLVQPGGSLRLSCVASGDVHKINFLGWYRQAPGKEREKVAHISIGDQTDYADSAKGRFTISRDESKNMVYLQMNSLKPEDTAVYFCRAFSRIYPYDYWGQGTLVTVSS
notes: Multispecific Nanobody polypeptide expressed in Pichia; also called cAbLys3(D1E,Q5V,A6E,Q108L)-35GS-A0110056A10-35GS-T0170056G05-FLAG3-HIS6; not shown: C-terminal FLAG3-HIS6 tag
B5: T017000116 (bispecific antibody)
chain: EVQLVESGGGLVQAGGSLRLSCAASGITSKINDMGWYRQTPGNYREWVASITATGTTNYRDSVKGRFTISRDNAKSTVYLQMNSLKPEDTTVYYCNTFPPISNFWGQGTLVTVSSGGGGSGGGGSGGGGSGGGGSGGGGSGGGGSGGGGSEVQLVESGGGLVQAGGPLRLSCAASGRTFSSYVMGWFRQAPGKEREFVAAIYWSNGKTQYTDSVKGRFTISGDNAKNTVYLQMNSLNPEDTAVYYCVADKDETGFRTLPIAYDYWGQGTLVTVSSGGGGSGGGGSGGGGSGGGGSGGGGSGGGGSGGGGSEVQLVESGGGLVQPGGSLRLSCVASGDVHKINFLGWYRQAPGKEREKVAHISIGDQTDYADSAKGRFTISRDESKNMVYLQMNSLKPEDTAVYFCRAFSRIYPYDYWGQGTLVTVSS
notes: Multispecific Nanobody polypeptide expressed in Pichia; also called A0110056A10-35GS-A0110055F03-35GS-T0170056G05-FLAG3-HIS6; not shown: C-terminal FLAG3-HIS6 tag
B6: T017000114 (bispecific antibody)
chain: EVQLVESGGGLVQAGGPLRLSCAASGRTFSSYVMGWFRQAPGKEREFVAAIYWSNGKTQYTDSVKGRFTISGDNAKNTVYLQMNSLNPEDTAVYYCVADKDETGFRTLPIAYDYWGQGTLVTVSSGGGGSGGGGSGGGGSGGGGSGGGGSGGGGSGGGGSEVQLVESGGGLVQAGGSLRLSCAASGITSKINDMGWYRQTPGNYREWVASITATGTTNYRDSVKGRFTISRDNAKSTVYLQMNSLKPEDTTVYYCNTFPPISNFWGQGTLVTVSSGGGGSGGGGSGGGGSGGGGSGGGGSGGGGSGGGGSEVQLVESGGGLVQPGGSLRLSCVASGDVHKINFLGWYRQAPGKEREKVAHISIGDQTDYADSAKGRFTISRDESKNMVYLQMNSLKPEDTAVYFCRAFSRIYPYDYWGQGTLVTVSS
notes: Multispecific Nanobody polypeptide expressed in Pichia; also called A0110055F03-35GS-A0110056A10-35GS-T0170056G05-FLAG3-HIS6; not shown: C-terminal FLAG3-HIS6 tag

Tests used:
[1] = molecular target: T3, human CD123 expressed on cells (human, UniProt P26951 19-378); assay: cell-based or functional assay
[2] = molecular target: T3, human CD123 expressed on cells; assay: cell-based or functional assay; remark: listed apart in the source
[3] = molecular target: T3, human CD123 expressed on cells; assay: cell-based or functional assay; remark: listed apart in the source
[4] = molecular target: T3, human CD123 expressed on cells; assay: cell-based or functional assay; remark: listed apart in the source
[5] = molecular target: T1, recombinant human CD123 protein (R&D …); assay: SPR (ProteOn XPR36), CD123 immobilized; values only indicative (incomplete regeneration)
Method: (§1) Binding affinities for the CD123/TCR multispecific polypeptides were evaluated by means of an SPR based affinity determination on a ProteOn XPR36 instrument. […] The dissociation time of the 1000 nM sample was 15 min. Flow rate was 45 μl/min and ProteOn running buffer (PBS, pH 7.4, 0.005% Tween 20) was used as running buffer. Evaluation of the association/dissociation data was performed by fitting a 1:1 interaction model (Langmuir binding model).

[6] = molecular target: T3, human CD123 expressed on cells; assay: flow cytometry competition, CHO Flp-In huCD123 cells, competitor A0110056A10-Alexa647 (0.9 nM)
Method: (§2) Next to binding to the MOLM-13 and CHO Flp-In huCD123 cells, binding to cyno CD123 transfected HEK Flp-In cells was assessed.

[7] = molecular target: T3, human CD123 expressed on cells; assay: flow cytometry competition, MOLM-13 cells, competitor A0110056A10-Alexa647 (0.4 nM)
Method: as §2

[8] = molecular target: T2, cynomolgus CD123 expressed on HEK …; assay: flow cytometry competition, HEK Flp-In cyCD123 cells, competitor A0110056A10-Alexa647 (0.9 nM)
Method: as §2

[9] = molecular target: T1, recombinant human CD123 protein (R&D …); assay: SPR (ProteOn XPR36), CD123 immobilized
Method: as §1

[10] = molecular target: cynomolgus TCR/CD3 expressed on cells (cynomolgus); assay: cell-based or functional assay
[11] = molecular target: cynomolgus TCR/CD3 expressed on cells (cynomolgus); assay: cell-based or functional assay; remark: listed apart in the source
[12] = molecular target: T3, human CD123 expressed on cells; assay: cell-based or functional assay; remark: listed apart in the source

Row | Binder | % lysis, redirected human T cell mediated killing of MOLM-13 cells, flow cytometry, E:T 10:1 [1] [%] | EC50 (M), redirected human T cell mediated killing of MOLM-13 cells, flow cytometry, E:T 10:1 [1] [M] | % lysis, redirected human T cell mediated killing of KG1a cells, flow cytometry, E:T 10:1 [2] [%] | EC50 (M), redirected human T cell mediated killing of KG1a cells, flow cytometry, E:T 10:1 [2] [M] | EC50 (M), IFN-γ secretion by human T cells during killing of CD123 transfected adherent target cells [3] [M] | EC50 (M), human IL-6 secretion during human T cell mediated killing of CD123 transfected adherent target cells [4] [M] | Kd [5] [nM] | koff [5] [s⁻¹] | kon [5] [M⁻¹ s⁻¹] | IC50 [6] [nM] | IC50 [7] [nM] | IC50 [8] [nM] | Kd [9] [nM] | koff [9] [s⁻¹] | kon [9] [M⁻¹ s⁻¹] | % lysis, redirected cyno T cell mediated killing of KG1a cells, flow cytometry [10] [%] | EC50 (M), redirected cyno T cell mediated killing of KG1a cells, flow cytometry [10] [M] | also measured
1 | B1 | 33 | 1.1e-11 | 18 | 5.1e-11 | 2e-09 | 5.9e-10 |  |  |  |  |  |  |  |  |  |  |  | 
2 | B2 |  |  |  |  |  |  | 1.5 | 0.00051 | 330000 |  |  |  |  |  |  |  |  | 
3 | B3 |  |  |  |  |  |  | 170 | 0.0025 | 15000 |  |  |  |  |  |  |  |  | 
4 | B4 |  |  |  |  |  |  |  |  |  | 23 | 26 | 110 | 22 | 0.00086 | 40000 |  |  | 
5 | B5 | 17 | 2.2e-10 | 5 | 4.2e-10 | 8.1e-09 | 9.6e-09 |  |  |  | 1.6 | 1.8 | 5.6 | 0.88 |  |  | 14 | 3.7e-10 | % lysis, redirected cyno T cell mediated killing of MOLM-13 cells, flow cytometry, E:T 10:1 [11]: 15%; EC50 (M), redirected cyno T cell mediated killing of MOLM-13 cells, flow cytometry, E:T 10:1 [11]: 3.9e-10 M
6 | B6 |  |  | 7 | 2.4e-10 |  |  |  |  |  |  |  |  | 2.3 | 0.00019 | 84000 | 7 | 1.9e-10 | % lysis, killing of MOLM-13 cells by non-activated human T cells, E:T ratio 2:1 [12]: 10%; % lysis, killing of MOLM-13 cells by non-activated human T cells, E:T ratio 8:1 [12]: 12%; % lysis, killing of MOLM-13 cells by pre-activated human T cells, E:T ratio 1:2 [12]: 18%; % lysis, killing of MOLM-13 cells by pre-activated human T cells, E:T ratio 2:1 [12]: 31%; % lysis, killing of MOLM-13 cells by pre-activated human T cells, E:T ratio 8:1 [12]: 43%; EC50 (M), killing of MOLM-13 cells by non-activated human T cells, E:T ratio 2:1 [12]: 1.9e-09 M; EC50 (M), killing of MOLM-13 cells by non-activated human T cells, E:T ratio 8:1 [12]: 1.4e-09 M; EC50 (M), killing of MOLM-13 cells by pre-activated human T cells, E:T ratio 1:2 [12]: 1e-09 M; EC50 (M), killing of MOLM-13 cells by pre-activated human T cells, E:T ratio 2:1 [12]: 6.8e-10 M; EC50 (M), killing of MOLM-13 cells by pre-activated human T cells, E:T ratio 8:1 [12]: 2.4e-10 M
